Test results published in the supplement of paper PMC12042874.
± gives the uncertainty stated by the source.

Experiment: amyloid nucleation score (Sup35N fusion, yeast selection) (log enrichment); library NNK1; higher = more nucleation; inactive = no reads after selection
Outline: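 After 24 hours of induction with 100 μM copper sulfate, psi-negative yeast expressing peptides of 20 random codons fused to Sup35N were grown for 7 days at 30°C on medium lacking adenine and uracil. Input and output plasmid inserts were sequenced with Illumina, and sequences with under 100 input reads were discarded. Scores for nucleation are the DiMSum log enrichment of output over input reads, centred on the mode score of non-aggregating sequences.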

Row | Substance | amyloid nucleation score
1 | TIDVCDSHLMAYTVDWNCVW | 0.505 ± 0.62
2 | TIFIAMDFNRVGKLFYRN | 5.368 ± 0.05
3 | TIIPLHIRAIYA | 0.956 ± 0.28
4 | TIMFLVITIPRFHNDLMVLS | -0.79 ± 0.37
5 | TIQPRRWYVYSKQFLWNLCC | 1.35 ± 0.14
6 | TIRVLDRTFVS | inactive
7 | TIRVQHYCVDRGQESVLMGS | -0.524 ± 0.51
8 | TISGNVSCQKYSRLCVQGLS | 0.449 ± 0.25
9 | TISLDRRDAVNYLVAHLCSV | -0.146 ± 1.4
10 | TISYLS | 0.198 ± 0.39
11 | TIVYATGMNMYTDAC | -0.203 ± 0.34
12 | TIWLDCLMDKTYVFDCLFSF | 0.587 ± 1.1
13 | TKDGIT | 0.305 ± 0.97
14 | TKIKYGDKSPKHYYMAS | -0.174 ± 0.6
15 | TKLVLWLVA | -0.429 ± 0.71
16 | TKSMFGTCNMFKTKVLN | -0.101 ± 0.49
17 | TKSRRSEGCEMPCHCNEVFV | 0.497 ± 0.72
18 | TKSTLL | -0.296 ± 0.64
19 | TLCCLT | inactive
20 | TLCCVWSNSFLRVTHDVYKA | 8.518 ± 0.057
21 | TLDADYPCNEQDTVWL | 1.01 ± 1.1
22 | TLFCSGSNAKAGCSEHYYFC | 3.04 ± 0.16

Row | Substance | amyloid nucleation score
23 | TLFLVWILGVTKSRITGTPS | 0.325 ± 0.73
24 | TLIGSDLVFGSRDPGWGCTI | -0.406 ± 0.45
25 | TLKFGSYQAVRLSHSGKPDD | 2.55 ± 0.1
26 | TLLRLFEKPLICYVIGRSLI | -1.09 ± 0.61
27 | TLNHRSLCFSSVDILWVWII | -0.533 ± 0.9
28 | TLSGFYPMYHHLCHECVLKP | 1.13 ± 0.37
29 | TLSTRTIHSCSEYYSGMCVL | 0.089 ± 0.93
30 | TLTCFLIYHTWTR | -1.34 ± 1.4
31 | TLVTEESWMSLLSVNIAQ | -0.378 ± 0.59
32 | TLYHSI | -0.385 ± 0.56
33 | TMGLSLYGV | -0.174 ± 0.51
34 | TMIWFQLRTTLLNYQATVFL | inactive
35 | TMIWLVAPPPLLAMVLY | 0.392 ± 0.6
36 | TMKVGYQGICYTETSGMSFV | inactive
37 | TMLWIVIARNFECEMGFNM | 3.1 ± 0.08
38 | TMSHCVRRCGVMGGVVAFKG | -0.031 ± 0.38
39 | TMTSPVGWETSSFRRMDR | 0.796 ± 0.52
40 | TMVFVCSNYGPSFSLLVC | 2.83 ± 0.24
41 | TMYVALFLFLA | 2.54 ± 0.29
42 | TNDTAPVWHTDLMTDWR | -0.079 ± 0.57
43 | TNFRRSCYVDGVC | inactive
44 | TNGNGFIRRFTRAYFFT | -0.338 ± 0.5

Row | Substance | amyloid nucleation score
45 | TNISQGRCKVECLPITSIYG | 0.247 ± 0.75
46 | TNISSTGFAIYWLCN | 7.16 ± 0.049
47 | TNITNLSSFVMDDTGWSVNE | inactive
48 | TPANNVRISFIWFL | 3.54 ± 0.064
49 | TPGVKPYYWIRLTEIVATHS | 0.52 ± 1.2
50 | TPRCLGERTISGISFYKV | -1.04 ± 0.55
51 | TPSSAFFDAMLNLQQVQSKC | inactive
52 | TPYYPSQKQCRMPRGACVL | -0.435 ± 0.48
53 | TQDEMVSVRNKLSCVTLE | 4.04 ± 0.06
54 | TQEKMSVGYYASNSLFWSML | 0.36 ± 1.2
55 | TQRTAFRGR | 0.203 ± 0.75
56 | TRAAYLGRGREMRCIKVAFW | 1.31 ± 0.93
57 | TRCCLFDRSSIYPSYCNEEA | -0.123 ± 0.9
58 | TRGVGYFIREIFGS | 0.241 ± 1.4
59 | TRHCMRLWECKHEMRTAN | -0.647 ± 1.1
60 | TRHFLSIVLLEL | 1.78 ± 0.28
61 | TRRDNVPQHNLGVTLLMVRE | -1.29 ± 2.7
62 | TRTLLNVHCCPSVW | 6.614 ± 0.054
63 | TRYMICSL | 0.121 ± 0.6
64 | TSACFFFRCCCLRS | 3.76 ± 0.15
